cAMP production in MC3T3-E1 cells, relative activity to hPTH(1-34) (relative activity to hPTH(1-34)) data for 19 substances are collected here from US5434246A, “Parathyroid hormone derivatives” (Takeda Chemical Industries, Ltd., priority 1992, dated 1995).

Several values for one entry are separate records, joined by “and”; a condition that tells them apart may be missing. Identical values can stand only once.

This assay concerns the target PTH receptor (mouse) (UniProt P41593).
The substance “[Gln^25,26,27 ]hPTH(1-34) (from UniProt P01270) (peptide)” gave a cAMP production in MC3T3-E1 cells, relative activity to hPTH(1-34) (relative activity to hPTH(1-34)) of 0.41.

“[Lys^15,16,17,His^27 ]hPTH(1-34) (from UniProt P01270) (peptide)” yielded a cAMP production in MC3T3-E1 cells, relative activity to hPTH(1-34) (relative activity to hPTH(1-34)) of 7.47.

On to “[Lys^16,17 ]hPTH(1-34) (from UniProt P01270) (peptide)”, for which the cAMP production in MC3T3-E1 cells, relative activity to hPTH(1-34) (relative activity to hPTH(1-34)) came to 8.85. In the case of “[Lys^15,16,17 ]hPTH(1-34) (from UniProt P01270) (peptide)” it was 7.62; in that of “[D-Ala^3 ]hPTH(1-34) (from UniProt P01270) (peptide)”, 2.17; in that of “[Thr^16 ]hPTH(1-34) (from UniProt P01270) (peptide)”, 1.74. The substance “[Orn^16,Gln^27 ]hPTH(1-34) (from UniProt P01270) (peptide)” registered a cAMP production in MC3T3-E1 cells, relative activity to hPTH(1-34) (relative activity to hPTH(1-34)) of 1.82. “[Gln^16 ]hPTH(1-34) (from UniProt P01270) (peptide)” displayed a cAMP production in MC3T3-E1 cells, relative activity to hPTH(1-34) (relative activity to hPTH(1-34)) of 1.73.

For “[Lys^14,15,16,17 ]hPTH(1-34) (from UniProt P01270) (peptide)”, the cAMP production in MC3T3-E1 cells, relative activity to hPTH(1-34) (relative activity to hPTH(1-34)) worked out at 6.39.

“[Arg^16,Gln^27 ]hPTH(1-34) (from UniProt P01270) (peptide)” returned a cAMP production in MC3T3-E1 cells, relative activity to hPTH(1-34) (relative activity to hPTH(1-34)) of 2.16. In the case of “[Gln^26,27 ]hPTH(1-34) (from UniProt P01270) (peptide)” it was 1.19; in that of “[Lys^15,16,His^27 ]hPTH(1-34) (from UniProt P01270) (peptide)”, 1.49. As to “[Lys^16 ]hPTH(1-34) (from UniProt P01270) (peptide)”, the cAMP production in MC3T3-E1 cells, relative activity to hPTH(1-34) (relative activity to hPTH(1-34)) was 5.48 and 3.37. In the case of “[Hci^16,Gln^27 ]hPTH(1-34) (from UniProt P01270) (peptide)” it was 1.54; in that of “[Thr^27 ]hPTH(1-34) (from UniProt P01270) (peptide)”, 0.96.

“[Arg^26,27 ]hPTH(1-34) (from UniProt P01270) (peptide)” returned a cAMP production in MC3T3-E1 cells, relative activity to hPTH(1-34) (relative activity to hPTH(1-34)) of 0.98. Substance “[Lys^16,Asp^17 ]hPTH(1-34) (from UniProt P01270) (peptide)” gave a cAMP production in MC3T3-E1 cells, relative activity to hPTH(1-34) (relative activity to hPTH(1-34)) of 1.24. “[D-Lys^16 ]hPTH(1-34) (from UniProt P01270) (peptide)” returned a cAMP production in MC3T3-E1 cells, relative activity to hPTH(1-34) (relative activity to hPTH(1-34)) of 0.86. “[Glu^16 ]hPTH(1-34) (from UniProt P01270) (peptide)”: the cAMP production in MC3T3-E1 cells, relative activity to hPTH(1-34) (relative activity to hPTH(1-34)) was found to be 1.55.
